{"source": "patent US20170002068A1", "about": "(YEDA RESEARCH AND DEVELOPMENT, published 2017)", "binders": {"B1": {"name": "human amphiregulin (ligand, UniProt P15514 101-198, looked up)", "chain": "SVRVEQVVKPPQNKTESENTSDKPKRKKKGGKNGKNRRNRKKKNPCNAEFQNFCIHGECKYIEHLEAVTCKCQQEYFGERCGEKSMKTHSMIDSSLSK", "notes": "also called AREG; hAREG"}}, "key": {"human amphiregulin [1]": {"target": "B1", "test": "ELISA, wells coated with human AREG at 0, 10, 50, 100, 500 ng/mL, antibody 2 h, anti-mouse-HRP, ABTS, absorbance 415 nm", "description": "Thereafter, wells were incubated for two hours with an anti-mouse antibody conjugated to HRP, followed by a 30 minute incubation with ATBS. Signals were determined using an ELISA reader (set at 415 nm)."}, "murine amphiregulin [2]": {"target": "T1, murine amphiregulin (mouse, UniProt P31955 94-191, limits assumed)", "T1 construct": "also called mAREG; murine AREG", "T1 sequence (looked up)": "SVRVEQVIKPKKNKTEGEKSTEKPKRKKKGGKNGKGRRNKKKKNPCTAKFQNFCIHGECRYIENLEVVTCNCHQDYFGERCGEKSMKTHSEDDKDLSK", "test": "ELISA, wells coated with 400 ng/mL ligand, mAb 2 h, anti-mouse-HRP, ABTS, 415 nm (legend; the y axis has no title)", "description": "(§1) Thereafter, wells were incubated for two hours with an anti-mouse antibody conjugated to HRP, followed by a 30 minute incubation with ATBS. Signals were determined using an ELISA reader (set at 415 nm). […] Thereafter, wells were incubated for two hours with an anti-mouse antibody conjugated to HRP, followed by a 30-min incubation with ATBS. Signals were determined using an ELISA reader (set at 415 nm). […] Thereafter, wells were incubated for two hours with an anti-mouse antibody conjugated to HRP, followed by a 20-min incubation with ATBS. Signals were determined using an ELISA reader (set at 420 nm)."}, "[3]": {"target": "T2, human heparin-binding EGF-like growth factor (human, UniProt Q99075 63-148)", "T2 construct": "also called hHB-EGF; HB-EGF", "T2 sequence (Q99075 63-148 limits assumed)": "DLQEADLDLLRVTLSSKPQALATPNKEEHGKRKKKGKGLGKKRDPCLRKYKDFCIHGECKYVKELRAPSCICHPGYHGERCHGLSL", "test": "ELISA, wells coated with 400 ng/mL ligand, mAb 2 h, anti-mouse-HRP, ABTS, 415 nm (legend; the y axis has no title)", "description": "as §1"}, "[4]": {"target": "T3, human epidermal growth factor (human, UniProt P01133 971-1023)", "T3 construct": "also called hEGF; EGF", "T3 sequence (P01133 971-1023 limits assumed)": "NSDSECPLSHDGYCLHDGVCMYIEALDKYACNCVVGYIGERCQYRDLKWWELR", "test": "ELISA, wells coated with ligand at 400, 200, 100, 50, 25 and 10 ng/mL, mAb 1 µg/mL 2 h, anti-mouse-HRP, ABTS; absorbance 415 nm on the sheet", "description": "as §1"}, "murine amphiregulin [5]": {"target": "T1, murine amphiregulin", "test": "SPR (BIAcore 3000), ligand in solution over AR30-coated surface", "description": "(§2) SPR was performed on a BIAcore 3000 instrument (BIAcore, Uppsala, Sweden). Proteins were diluted in 100 mM Na-acetate (pH 4.6) to 20 μg/ml and immobilized on a CM5 sensor chip using a standard protocol of amine coupling. The protein solution was flown over the chip for 5 minutes at a rate of 20 μl/min. […] The net signal was obtained by subtracting the blank signal (plain dextran matrix) from the signal recorded from the immobilized surface. The association phase for analyte binding to all ligands was followed for 4 minutes, and dissociation phases were monitored for 3 minutes. Surface regeneration between consecutive binding cycles included a 1 min injection of 2 mM NaOH. The response was monitored as a function of time (sensorgram). Multi-concentration data underwent fitting using the software BIAevaluation 3.2."}, "human neuregulin 1": {"target": "T4, human neuregulin 1 (human, UniProt Q02297-6 177-241, limits assumed)", "T4 construct": "also called hNRG1; NRG1", "T4 sequence (looked up)": "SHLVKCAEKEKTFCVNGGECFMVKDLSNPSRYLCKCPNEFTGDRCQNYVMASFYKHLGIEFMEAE", "test": "SPR (BIAcore 3000), ligand in solution over AR30-coated surface", "description": "as §2"}, "human amphiregulin [6]": {"target": "B1", "test": "SPR (BIAcore 3000), ligand in solution over AR30-coated surface", "description": "as §2"}, "human betacellulin": {"target": "T5, human betacellulin (human, UniProt P35070 32-111)", "T5 construct": "also called hBTC; BTC", "T5 sequence (looked up)": "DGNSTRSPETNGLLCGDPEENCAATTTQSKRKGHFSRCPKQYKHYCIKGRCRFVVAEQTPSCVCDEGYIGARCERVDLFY", "test": "SPR (BIAcore 3000), ligand in solution over AR30-coated surface", "description": "as §2"}, "[7]": {"target": "T3, human epidermal growth factor", "test": "SPR (BIAcore 3000), ligand in solution over AR30-coated surface", "description": "as §2"}, "[8]": {"target": "T6, human transforming growth factor alpha (human, UniProt P01135 40-89)", "T6 construct": "also called hTGF-alpha; TGF-alpha", "test": "SPR (BIAcore 3000), ligand in solution over AR30-coated surface", "description": "as §2"}, "[9]": {"target": "T2, human heparin-binding EGF-like growth …", "test": "SPR (BIAcore 3000), ligand in solution over AR30-coated surface", "description": "as §2"}, "[10]": {"target": "T7, murine heparin-binding EGF-like growth factor (mouse, UniProt Q06186 63-148, limits assumed)", "T7 construct": "also called mHB-EGF", "T7 sequence (looked up)": "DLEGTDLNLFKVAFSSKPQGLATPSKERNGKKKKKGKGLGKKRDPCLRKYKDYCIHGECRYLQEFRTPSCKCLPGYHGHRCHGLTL", "test": "SPR (BIAcore 3000), ligand in solution over AR30-coated surface", "description": "as §2"}, "human epigen": {"target": "T8, human epigen (human, UniProt Q6UW88 24-104, limits assumed)", "T8 construct": "also called hEPG; EPG", "T8 sequence (Q6UW88 24-104 limits assumed)": "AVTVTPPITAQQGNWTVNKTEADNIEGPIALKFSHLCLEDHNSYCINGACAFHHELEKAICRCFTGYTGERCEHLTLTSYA", "test": "SPR (BIAcore 3000), ligand in solution over AR30-coated surface", "description": "as §2"}, "[11]": {"target": "T9, Epidermal Growth Factor Receptor (human, UniProt P00533 25-1210)", "T9 construct": "whole, on cells; also called EGFR; ERBB1", "test": "displacement of 125I-EGF (50 ng/mL) from MCAS ovarian cancer cells by unlabeled ligand, 3 h on ice, cell-associated radioactivity", "description": "(§3) The cells were later washed and lysed, and the associated radioactivity was determined. […] The cells were later washed and lysed in 1 N NaOH. Cell-associated radioactivity was determined. […] Washed immunocomplexes, along with whole extracts, were immunoblotted with the indicated antibodies."}, "[12]": {"target": "T9, Epidermal Growth Factor Receptor", "test": "displacement of 125I-EGF (50 ng/mL) by unlabeled ligand on MCAS ovarian cancer cells, on ice", "description": "as §3"}, "[13]": {"target": "T9, Epidermal Growth Factor Receptor", "test": "cell-based or functional assay"}}}
{"binder": "AR558, anti-AREG monoclonal antibody (antibody, V domains shown, Mouse hybridoma mAb generated in AREG knockout mice; they may cover only the variable regions; also called mAb AR558) VH: EVQLQQSGAELVKPGASVKLSCTASGFNIKDTYMHWVKQRPEQGLEWIGRIDPANRSTKYDPKFQGKATITADTSSNTADLHLSSLTSEDTAVYYCARLYGDSVWYFDVWGAGTTVTVSS VL: QIVLTQSPAILSASPGEKVTMTCRAGSSVNYIHWYQQKPGSSPKPWIYATSNLASGVPARFSGSGSGTSYSLTISRVEAEDAATYYCQQWSGYPPMLTFGAGTKLELKR", "values": [{"measurement": "binding result", "setting": "human amphiregulin [1]", "result": "binds"}, {"measurement": "binding result", "setting": "murine amphiregulin [2]", "result": "no binding (tested: 400 ng/mL coated ligand)"}, {"measurement": "binding result", "setting": "[3]", "result": "no binding (tested: 400 ng/mL coated ligand)"}, {"measurement": "binding result", "setting": "[4]", "result": "no binding (tested: 400 ng/mL coated ligand, mAb 1 µg/mL)"}]}
{"binder": "AR30, anti-AREG monoclonal antibody (antibody, V domains shown, Mouse hybridoma mAb raised against TRX-fused EGF-like domain of human AREG; they may cover only the variable regions; also called mAb AR30; AR30 mAb) VH: EVQLQQSGAELVRSGASVKLSCTASGFNIKDSYMHWVKQRPEQGLEWIGWVDPDNGDTEYAPEFQGRATLTADTFSSTAYLQLTSLTSEDTAVYYCNAPSTYGHYGFAYWGQGTLVTVSA VL: DIVMTQAAPSVPVTPGESVSISCRSSKSLLHSNGKAYLYWFLQRPGQSPQLLIYRMSNLASGVPDRFSGSGSGTAFTLRISRVEAEDVGVYYCMQHLEYPLTFGAGTKLELKR", "values": [{"measurement": "Kd", "setting": "murine amphiregulin [5]", "result": "> 10", "unit": "µM"}, {"measurement": "Kd", "setting": "human neuregulin 1", "result": "> 10", "unit": "µM"}, {"measurement": "Kd", "setting": "human amphiregulin [6]", "result": 0.0017, "unit": "µM"}, {"measurement": "Kd", "setting": "human betacellulin", "result": "> 10", "unit": "µM"}, {"measurement": "Kd", "setting": "[7]", "result": "> 10", "unit": "µM"}, {"measurement": "Kd", "setting": "[8]", "result": "> 10", "unit": "µM"}, {"measurement": "Kd", "setting": "[9]", "result": 0.08, "unit": "µM"}, {"measurement": "Kd", "setting": "[10]", "result": 6.65, "unit": "µM"}, {"measurement": "Kd", "setting": "human epigen", "result": "> 10", "unit": "µM"}]}
{"binder": "B1", "values": [{"measurement": "IC50 (read off the curve)", "setting": "[11]", "result": "~0.1", "unit": "µg/mL"}, {"measurement": "fold lower binding affinity compared to EGF", "setting": "[12]", "result": "~100", "unit": "fold"}, {"measurement": "endocytosis-mediated downregulation of EGFR (MCAS cells, 125I-EGF binding after stimulation)", "setting": "[13]", "result": "~30", "unit": "%"}]}
